From paper doi:10.1101/2025.01.22.634223 (bioRxiv, 2025)

B1: GST::hGDI1 (natural protein)
chain: MDEEYDVIVLGTGLTECILSGIMSVNGKKVLHMDRNPYYGGESSSITPLEELYKRFQLLEGPPESMGRGRDWNVDLIPKFLMANGQLVKMLLYTEVTRYLDFKVVEGSFVYKGGKIYKVPSTETEALASNLMGMFEKRRFRKFLVFVANFDENDPKTFEGVDPQTTSMRDVYRKFDLGQDVIDFTGHALALYRTDDYLDQPCLETVNRIKLYSESLARYGKSPYLYPLYGLGELPQGFARLSAIYGGTYMLNKPVDDIIMENGKVVGVKSEGEVARCKQLICDPSYIPDRVRKAGQVIRIICILSHPIKNTNDANSCQIIIPQNQVNRKSDIYVCMISYAHNVAAQGKYIAIASTTVETTDPEKEVEPALELLEPIDQKFVAISDLYEPIDDGCESQVFCSCSYDATTHFETTCNDIKDIYKRMAGTAFDFENMKRKQNDVFGEAEQ

Columns and labels:
6HIS::MYC::PIAS1::6HIS = 6HIS::MYC::PIAS1::6HIS (human, UniProt O75925 1-651); experiment: pull-down
Chain of 6HIS::MYC::PIAS1::6HIS (O75925 whole entry): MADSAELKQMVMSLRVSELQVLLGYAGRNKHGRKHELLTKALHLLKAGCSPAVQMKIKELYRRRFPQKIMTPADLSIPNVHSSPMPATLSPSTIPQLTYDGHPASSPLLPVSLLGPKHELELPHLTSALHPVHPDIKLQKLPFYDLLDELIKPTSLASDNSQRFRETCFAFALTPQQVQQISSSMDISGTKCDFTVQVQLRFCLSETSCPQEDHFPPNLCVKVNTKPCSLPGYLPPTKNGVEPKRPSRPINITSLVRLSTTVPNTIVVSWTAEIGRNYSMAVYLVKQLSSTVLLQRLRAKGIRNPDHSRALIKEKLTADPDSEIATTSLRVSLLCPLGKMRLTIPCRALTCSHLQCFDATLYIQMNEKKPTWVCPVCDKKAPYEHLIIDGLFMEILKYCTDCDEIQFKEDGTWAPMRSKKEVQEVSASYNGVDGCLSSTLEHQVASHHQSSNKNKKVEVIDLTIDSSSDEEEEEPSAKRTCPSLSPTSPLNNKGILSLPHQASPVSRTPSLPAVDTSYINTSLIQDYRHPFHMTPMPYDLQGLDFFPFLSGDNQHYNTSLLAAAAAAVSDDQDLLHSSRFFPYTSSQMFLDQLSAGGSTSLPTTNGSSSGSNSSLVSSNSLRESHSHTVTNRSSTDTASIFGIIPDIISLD
GST::hGDI1 = target: B1; experiment: pull-down

B1: binds (6HIS::MYC::PIAS1::6HIS).

B2: 6HIS::MYC::RAB1A::6HIS (natural protein)
chain: not shown
B2: binds (GST::hGDI1).
